Substitutions are numbered along the chain they refer to. Read-outs that look alike come from different tables or passages of the source.

The values that follow come from US20240059757A1 (VIR BIOTECHNOLOGY, published 2024).

The target in assay [1] is T1, SARS-CoV-2 RBD (residues 331-550 of spike from BetaCoV/Wuhan-Hu-1/2019, accession number MN908947) (SARS-CoV-2 Wuhan-Hu-1, UniProt P0DTC2 331-550).
Assay [2] concerns the target T2, SARS-CoV-2 RBD-mouse Fc (Sino Biological) (SARS-CoV-2, UniProt P0DTC2 331-541).
Assay [3] concerns the target T3, SARS-CoV-2 Spike protein (SARS-CoV-2 Wuhan-Hu-1, UniProt P0DTC2 14-1273). As to the kind of experiment: cell-based or functional assay.
Assay [4] has as its target T4, SARS-CoV RBD (Sino Biological) (SARS-CoV, UniProt P59594 306-527).
The target of assay [5] is T3, SARS-CoV-2 Spike protein. As to the kind of experiment: cell-based or functional assay. This is another data set of the same source.
Assay [6] concerns the target T2, SARS-CoV-2 RBD-mouse Fc (Sino …). This is another data set of the same source.
The target of assay [7] is T1, SARS-CoV-2 RBD (residues 331-550 of …). Kind of assay: BLI (Octet): antibody on Protein A pins, SARS-CoV-2 RBD at 6, 1.5 and 0.4 µg/ml. A general note: Biolayer interferometry detects binding as a change in optical thickness at a sensor tip.
The target in assay [8] is T3, SARS-CoV-2 Spike protein. As to the kind of experiment: cell-based or functional assay. This is another data set of the same source.
The target of assay [9] is T2, SARS-CoV-2 RBD-mouse Fc (Sino …). The source holds these as a separate data set.
Assay [10] concerns the target T4, SARS-CoV RBD (Sino Biological). As to the kind of experiment: ELISA. (An ELISA detects its analyte on a solid surface through an enzyme-linked reagent.)
The target of assay [11] is T3, SARS-CoV-2 Spike protein. Kind of assay: cell-based or functional assay. This is another data set of the same source.
In assay [12] the target is T3, SARS-CoV-2 Spike protein.
In assay [13] the target is T2, SARS-CoV-2 RBD-mouse Fc (Sino …). This is another data set of the same source.
Assay [14] has as its target T3, SARS-CoV-2 Spike protein. The source holds these as a separate data set.
In assay [15] the target is T1, SARS-CoV-2 RBD (residues 331-550 of …). As to the kind of experiment: BLI (Octet): antibody on Protein A pins, SARS-CoV-2 RBD at 6, 1.5 and 0.4 µg/ml. The source holds these as a separate data set.
Assay [16] addresses T4, SARS-CoV RBD (Sino Biological). As to the kind of experiment: BLI.
For assay [17], the target named is T1, SARS-CoV-2 RBD (residues 331-550 of …). As to the kind of experiment: BLI.
In assay [18] the target is T4, SARS-CoV RBD (Sino Biological). Kind of assay: ELISA. The source holds these as a separate data set.
For assay [19], the target named is T1, SARS-CoV-2 RBD (residues 331-550 of …). As to the kind of experiment: ELISA.
For a further assay, the target named is SARS-CoV Spike protein (SARS-CoV, UniProt P59594 14-1255). Kind of assay: cell-based or functional assay.
Assay [20] deals with T3, SARS-CoV-2 Spike protein. As to the kind of experiment: cell-based or functional assay. The source holds these as a separate data set.

B1: S2X227 (antibody, V domains shown)
VH: EVQLVQSGAEVKKPGASVKVSCKASGYTFTSYYMHWVRQAPGQGLEWMGIINPGGVSTTYAHYAQKFQGRVTMTRDTSTSTVYMELSSLRSEDTAVYYCARSIAVFWGDAFDIWGQGTMVTVSS
VL: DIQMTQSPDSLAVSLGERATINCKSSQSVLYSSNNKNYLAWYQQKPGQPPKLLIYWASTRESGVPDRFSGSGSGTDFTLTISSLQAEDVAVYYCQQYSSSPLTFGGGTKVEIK
In general, EC50 refers to the concentration giving half of the maximal effect. By IC50 is commonly meant the concentration needed to halve the response being measured. A higher IC50 goes with weaker potency in that assay. In the case of B1, the EC50 was found to be 0.00109 µg/mL in assay [1] and 1.35 µg/mL in assay [4]. Moreover, the IC50 in assay [2] came to 0.0274 µg/mL. Further, the “neutralization IC50” value in the assay with SARS-CoV-2 Spike protein [3] is 0.00445 µg/mL. The “neutralization EC50 (interpolated)” value with SARS-CoV-2 Spike protein [5] came to 0.0053 µg/mL.

B2: S2X127 (antibody, V domains shown)
VH: EVQLVESGGGLIQPGGSLRLSCAASGLTVRSNYMSWVRQAPGKGLEWVSVMYSGGSTFYADSVKGRSTISRDNSKNTLYLQMNSLRAEDTAVYYCARGDIADDYHYGLDVWGQGTTVTVSS
VL: QSVLTQPPSVSGAPGQRVTISCTGSTSNIGAGYNVHWYQHFPGTSPKLLIYGNSNRPSGVPDRFSGSKSGTSASLAITGLQAEDEAAYYCQSYDSNLSGVFGGGTKLTVL
In general, Kd refers to the concentration at which binding is half-saturated. A higher Kd goes with lower affinity. Turning to B2, in assay [6], the IC50 was determined as 0.0102 µg/mL. In addition, in [7], the Kd was less than 0.001 nM.

B3: S2H7 (antibody, V domains shown)
VH: EVQLVESGGGLVQPGGSLRLSCAASGFIVSSNYMSWVRQAPGKGLEWVSVIYSGGSTYYADSVKGRFTISRDNSKNTLYLQMNSLRAEDTSVYYCARDRQYSGSPSFDYWGQGTLVTVSS
VL: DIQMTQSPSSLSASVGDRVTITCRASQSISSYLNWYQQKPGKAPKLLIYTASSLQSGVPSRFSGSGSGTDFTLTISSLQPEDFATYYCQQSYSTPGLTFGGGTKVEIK
As for B3, the “neutralization IC50” value with SARS-CoV-2 Spike protein [8] stood at 0.195 µg/mL.

B4: S2D32 (antibody, V domains shown)
VH: EVQLVESGGGLVQPGRSLRLSCTSSGFTFGDYPMSWFRQAPGKGLEWVGFIRSKAYGGTTQYAASVKGRFTISRDDSKNIAYLQMNSLKTEDTAVYYCTREMWDCSGGRCYSPFFDYWGQGTLVTVSS
VL: EIVMTQSPATLSVSPGERATLSCRASQTVSSNLAWYQQKPGQAPRLLIYGASTRATGIPARFSGSGSGTEFTLTISSLQSEDFAVYYCQQYNNWRTFGQGTKLEIK
B4: the “IC50 (read off the curve)” value in [9] was roughly 0.03 µg/mL. The binding result in assay [10] is “no binding”. Also, in the assay with SARS-CoV-2 Spike protein [11], the “neutralization IC50” value turned out to be 0.036 µg/mL, the “neutralization IC80” value came out at 0.081 µg/mL, the “neutralization IC90” value was 0.129 µg/mL and the “neutralization IC95” value turned out to be 0.2 µg/mL.

B5: S2A15 v1 (antibody, V domains shown)
VH: QVQLQESGPGLVKPSGTLSLTCAVSGGSISSSNWWSWVRQPPGKGLEWIGEIYHSGNTNYNPSLKSRVTISVDKSKNQFSLKLTSVTAADTAVYYCASRYCSSTSCPNWFDPWGQGTLVTVSS
VL: QSALTQPASVSGSPGQSITISCTGTSSDVGSYNLVSWYQQHPGKAPKFMIYEGSKRPSGVSNRFSGSKSGNTASLTISGLQAEDEADYYCCSYAGSSTWVFGGGTKLTVL
Regarding B5, the response with SARS-CoV-2 Spike protein [12] was half-maximal at 0.656 µg/mL (EC50).

B6: S2A15 v2 (antibody, V domains shown)
VH: B5 VH with V2I, Q3T, Q5K
VL: B5 VL
B6 returned an EC50 with SARS-CoV-2 Spike protein [12] of 0.335 µg/mL.

B7: S2A4 (antibody, V domains shown)
VH: EVQLVESGGGLVQPGGSLRLSCAASGFTFSSYWMNWVRQAPGKGLEWVANIKQDGSEKYYVDSVKGRFTISRDNAKNSLFLQMNSLRAEDTAVYYCARVWWLRGSFDYWGQGTLVTVSS
VL: NFMLTQPHSVSESPGKTVTISCTGSSGSIASNYVQWYQQRPGSAPTTVIYEDNQRPSGVPDRFSGSIDSSSNSASLTISGLKTEDEADYYCQSYDSSNHVVFGGGTKLTVL
Turning to B7, in assay [13], the “IC50 (read off the curve)” value was roughly 0.06 µg/mL. Further, the “neutralization IC50” value with SARS-CoV-2 Spike protein [8] amounted to 3.45 µg/mL.

B8: S2B2 v1 (antibody, V domains shown)
VH: QVQLVESGGGVVQPGRSLRLSCAASGFTFSNFGMHWVRQAPGKGLEWVAVISYDGNNKFYADSVKGRFTISRDNSKNTLYLQMNSLRAEDTAVYYCAKPTVSFGVVIDAFDIWGQGTMVTVSS
VL: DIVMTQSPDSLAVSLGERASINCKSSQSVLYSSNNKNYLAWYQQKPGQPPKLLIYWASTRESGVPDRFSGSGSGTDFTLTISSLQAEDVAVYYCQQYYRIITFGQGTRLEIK
On to B8, for which a half-maximal response with SARS-CoV-2 Spike protein [14] (EC50) required 0.0107 µg/mL.

B9: S2B2 v2 (antibody, V domains shown)
VH: B8 VH with Q1E, A97S
VL: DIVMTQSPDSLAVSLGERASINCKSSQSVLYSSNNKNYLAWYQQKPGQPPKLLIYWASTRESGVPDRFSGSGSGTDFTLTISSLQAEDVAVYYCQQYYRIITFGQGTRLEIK
In turn, B9 came in with an EC50 with SARS-CoV-2 Spike protein [14] of 0.00812 µg/mL.

B10: S2X129 (antibody, V domains shown)
VH: EVQLVQSGAEVKKPGASVKVSCKASGYTFTDYFMHWVRQAPGQGLEWMGWISPNSGGTNYAQRFQGRVTMTRDTSISTTYMELSRLRSDDTAVYYCARDQAYIVLAQGSGMDVWGQGTTVTVSS
VL: DIVMTQTPSSVSASVGDRVTITCRASQGISSWLAWYQQKPGKAPKLLISAASSLQSGVPSRFSGSGSGTDFTLTISTLQPEDFATYYCQQANSFPLAFGPGTKVDIK
Regarding B10, the IC50 in assay [6] was 0.0214 µg/mL. This molecule gave a Kd in assay [15] of 0.857 nM.

B11: S2D8 (antibody, V domains shown)
VH: EVQLLESGGGLVQPGGSLRLSCAASGFTFTTYAMSWVRQAPGKGLEWVSGISGSGGNTYHADSVKGRFTISRDNSKSTLYLQMNSLRAEDTAVYYCAKDLWFREILHGMDVWGEGTTVTVSS
VL: QSALTQPASVSGSPGQSITISCTGTSSDIGGYNYVSWYQHHPGKAPKIMIYEVTNRPSGVSNRFSGSKSGNTASLTISGLQAEDEADYYCSSYTSSNTYVFGTGTKVTVL
Turning to B11, the binding result in assay [10] was “no binding”. Further, the “IC50 (read off the curve)” value in assay [13] was roughly 0.03 µg/mL. In addition, in the assay with SARS-CoV-2 Spike protein [11], the “neutralization IC50” value was 0.03 µg/mL, the “neutralization IC80” value was 0.058 µg/mL, the “neutralization IC90” value came out at 0.087 µg/mL and the “neutralization IC95” value was 0.125 µg/mL.

B12: S2D25 (antibody, V domains shown)
VH: EVQLVESGGGLVQPGGSLRLSCAASGFPFNIYAMSWVRQAPGKGLEWVSGISGSGGSTYYADSVRGRFAISRDNSKNTLYLQMNSLRAEDTAEYYCAKDLWFREILHGMDVWGKGTTVTVSS
VL: B11 VL with I29V, K44R, I48L, T54S, T76S, N97S, T103A
For B12, the “IC50 (read off the curve)” value in [9] is roughly 0.03 µg/mL. Also, the binding result in assay [10] is on record as “no binding”. In the assay with SARS-CoV-2 Spike protein [11], the “neutralization IC50” value was found to be 0.04 µg/mL, the “neutralization IC80” value is 0.091 µg/mL, the “neutralization IC90” value is 0.146 µg/mL and the “neutralization IC95” value was 0.228 µg/mL.

B13: S2H14 (antibody, V domains shown)
VH: not shown
VL: NFMLTQPHSVSESPGKTVTISCTRSSGSIASNYVQWYQQRPGSSPTTVIYEDNQRPSGVPDRFSGSIDSSSNSASLTISGLKTEDEADYYCQSYDSSNQVFGGGTKLTVL
Regarding B13, the “neutralization IC50” value with SARS-CoV-2 Spike protein [8] was determined as 0.847 µg/mL.

B14: S2D22 (antibody, V domains shown)
VH: EVHLVESGGGLVQPGGSLKLSCAASGFTFSGSAMHWVRQASGKGLEWVGRIRTKANTYATAYAASVKGRFTISRDDSKNTAYLQMNSLKTEDTAVYYCTRPAPYDFLSDYYTGEQLDYWGQGTLVTVSS
VL: QSVLTQPPSVSGAPGQRVTISCTGSSSNIGAGYDVHWYQQLPGAAPKLLIYGNSNRPSGVPDRFSGSKSGTSASLAITGLQAEDEADYYCQSYDSSLSGPEVFGTGTKVTVL
In the case of B14, the Kd in assay [16] is 53.5 nM; in assay [17], 5.21 nM. Also, the “neutralization IC50” value with SARS-CoV-2 Spike protein [11] is 0.865 µg/mL; with SARS-CoV Spike protein, 3.63 µg/mL; in the assay with SARS-CoV-2 Spike protein [20], 1.03 µg/mL. In addition, the “neutralization IC80” value with SARS-CoV-2 Spike protein [11] was 3.28 µg/mL. Moreover, the “neutralization IC90” value with SARS-CoV-2 Spike protein [11] amounted to 7.16 µg/mL. In addition, the “neutralization IC95” value in the assay with SARS-CoV-2 Spike protein [11] amounted to 14.7 µg/mL. The results for the concentration for a half-maximal effect (EC50) in assay [18] and in assay [19] were 0.0422 µg/mL and 0.0353 µg/mL, respectively.
